The results in this text go back to patent US11472877 (Alector, dated 2022).

The target of one assay is T1, mouse TREM1 on CHO cells (mouse, UniProt Q9JKE2 21-230).
T1 construct: also called CHO-mT1
T1 sequence: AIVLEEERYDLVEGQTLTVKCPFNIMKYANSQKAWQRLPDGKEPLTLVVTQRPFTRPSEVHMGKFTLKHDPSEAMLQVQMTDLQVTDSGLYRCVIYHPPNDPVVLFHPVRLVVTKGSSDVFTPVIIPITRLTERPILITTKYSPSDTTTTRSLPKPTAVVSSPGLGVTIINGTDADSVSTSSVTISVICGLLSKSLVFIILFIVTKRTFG
In words: FACS, CHO mouse TREM1.

For assay [1], the target named is T2, mouse TREM2 on BWZ cells (mouse, UniProt Q99NH8 19-227).
T2 construct: whole, on cells; also called BWZ Mouse TREM2
T2 sequence (looked up): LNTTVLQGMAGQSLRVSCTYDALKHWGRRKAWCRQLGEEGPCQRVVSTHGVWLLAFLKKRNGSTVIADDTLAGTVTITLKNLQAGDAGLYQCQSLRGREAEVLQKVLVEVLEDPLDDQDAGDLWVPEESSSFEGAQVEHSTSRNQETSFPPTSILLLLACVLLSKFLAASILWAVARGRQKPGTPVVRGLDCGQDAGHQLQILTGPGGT
In words: FACS, BWZ mouse TREM2. A general note: Flow cytometry measures light scatter and fluorescence of single cells or particles in a stream.

Assay [2] deals with T3, human TREM2 on BWZ cells (human, UniProt Q9NZC2 19-230).
T3 construct: whole, on cells; not tied to the cell line; also called BWZ Human TREM2
T3 sequence (looked up): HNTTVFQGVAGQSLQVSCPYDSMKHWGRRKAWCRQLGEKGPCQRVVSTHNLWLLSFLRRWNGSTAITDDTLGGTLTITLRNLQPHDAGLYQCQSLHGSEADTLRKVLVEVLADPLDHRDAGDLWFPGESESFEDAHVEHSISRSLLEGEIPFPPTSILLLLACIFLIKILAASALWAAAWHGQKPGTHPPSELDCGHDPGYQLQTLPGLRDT
In words: FACS, BWZ human TREM2.

For assay [3], the target named is T3, human TREM2 on BWZ cells. Description: FACS, BWZ cells.
In assay [4] the target is T2, mouse TREM2 on BWZ cells. Description: FACS, BWZ cells.

B1: T1-54 (antibody, IgG1, V domains shown)
VH: QVQLVQSGAEVKKPGSSVKVSCKASGGTFSSYAISWVRQAPGQGLEWMGGIIPIFGTANYAQKFQGRVTITADESTSTAYMELSSLRSEDTAVYYCARHWYALGSFDIWGQGTMVTVSS
VL: EIVMTQSPATLSLSPGERATLSCRASQSVSSYLAWYQQKPGQAPRLLIYDSSNRATGIPARFSGSGSGTDFTLTISSLEPEDFAVYYCQQHDVWPITFGGGTKVEIK
notes: huIgG1; also called TI-54; ADI-19129
B1: the “FOB Fold Over Background” value was 3.1 fold in the assay with mouse TREM1 on CHO cells, 1.2 fold in the assay with mouse TREM2 on BWZ cells [1] and 1.1 fold in the assay with human TREM2 on BWZ cells [2]. In addition, the binding result with human TREM2 on BWZ cells [3] and in the assay with mouse TREM2 on BWZ cells [4] was “no binding” throughout.

B2: T1-80 (antibody, IgG1, V domains shown)
VH: QVQLVESGGGVVQPGRSLRLSCAASGFTFSSYGMHWVRQAPGKGLEWVALIWYDGSNKYYADSVKGRFTISRDNSKNTLYLQMNSLRAEDTAVYYCARELIVGATGGLTYYYGMDVWGQGTTVTVSS
VL: EIVMTQSPATLSVSPGERATLSCRASQSVGSNLAWYQQKPGQAPRLLIYGASTRATGIPARFSGSGSGTEFTLTISSLQSEDFAVYYCQQDHDRPLTFGGGTKVEIK
notes: huIgG1; also called TI-80; ADI-19159
Consider B2, for which the “FOB Fold Over Background” value with mouse TREM1 on CHO cells turned out to be 1.2 fold; in the assay with mouse TREM2 on BWZ cells [1], 0.9 fold; with human TREM2 on BWZ cells [2], 1 fold. Further, the binding result with human TREM2 on BWZ cells [3] and with mouse TREM2 on BWZ cells [4] was “no binding” in each case.
